Data reported in the supplement of paper PMC10567573.

B1: SMOC2 (parent)
chain: DCAGSPQKPLCASDGRTFLSRCEF
B2: ZNF511 (parent)
chain: HLYPADFRFDKPKKSRSPASAEAP

Variants of: B1
Experiment: protein stability index of a GFP-peptide fusion (GPS, HEK-293T) (PSI 1-6); higher = more stable
Conditions: c terminus: a fixed tail appended
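Note: lentivirally expressed fusions sorted by FACS into six bins by GFP to DsRed ratio, PSI derived from sequencing read proportions per bin multiplied by bin number.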

Protein stability index: each site, then its substitutions
E23: W 1.82, I 1.52, L 4.25, K 3.63, S 2.74, R 2.43, N 3.31, A 2.59, H 2.46, P 2.95, T 2.19, F 2.38, D 3.65, M 2.1, G 1.5, Y 1.84, C 2.53, Q 3.27, V 1.73
F24: P 2.43, T 2.61, V 3.32, Y 2.67, L 3.44, Q 3.6, W 2.02, K 2.97, I 3.16, M 2.72, H 3.79, D 4.38, S 3.46, N 3.93, E 4.41, A 3.45, R 2.57
C22: M 2.31, E 4.38, H 3.68, P 3.95, Y 3.67, S 3.49, F 2.5, K 4.42, V 2.63, W 2.93, G 3.96, N 4.36, L 2.5, T 3.29, Q 4.19

Variants of: B2
Experiment: as above
Conditions: c terminus: a fixed tail appended

Protein stability index: each site, then its substitutions
P12: K 2.96, A 2.83, I 3.72, H 2.89, Y 2.94, F 3.14, N 2.65, S 2.64, L 3.25, T 3.7, G 3.02, R 2.47, W 3.02, Q 3.18, M 2.72
K14: T 2.8, C 2.77, D 3.29, Q 2.39, V 2.33, A 3.3, S 3.08, F 2.26, N 3.04, W 2.56, R 2.01, H 2.37
D6: A 2.12, G 3.23, I 1.47, C 2.52, R 2.59, S 3.17
A19: G 3.02, I 2.74, W 2, N 2.56, E 2.97, P 3.18, D 3.36, K 3.54, L 2.88, F 2.05
S20: N 3.36, F 2.22, D 2.97, A 3.32, V 2.82, H 2.69, M 2.68, T 3.07, E 2.78, K 2.71, Y 2.61, R 2.97, Q 2.42, G 2.85
H1: K 4.05, R 3.57, T 4.19, I 2.85, G 4.7, D 4.13, F 4.32, W 2.69, E 3.81, L 3.94, S 4.48, Q 3.65, A 3.95, V 3.67, C 3.59
A21: G 3, S 3.4, M 3, T 2.75, F 3.18, W 2.28, V 2.71, D 2.72, I 2.82, Y 2.95, Q 3.67, R 2.84
E22: P 2.91, A 2.7, S 2.83, L 2.58, C 2.67, Q 2.61, I 2.93, G 3.13, T 2.64, W 2.44
R16: C 2.54, H 3.13, Q 3.28, T 3.44, S 2.76, N 3.17, E 3.34, G 3.29, K 3.36, Y 2.13, P 3.2, D 3.18
A23: H 3.13, M 2.53, S 2.86, G 3.28, Y 2.63, K 3.19, E 2.88, I 2.69, R 2.8, L 2.88, D 3.24, T 2.72, F 2.76
P24: A 3.32, K 2.97, F 2.94, S 3.62, G 2.42, T 2.71, H 2.87, Q 2.6, M 2.53, R 2.39, W 2.14, D 3.44, I 2.61, V 2.98
K13: M 2.84, N 2.7, I 3, Q 3.4, D 3.04, L 2.94, E 3.34, S 2.91, F 2.7, R 3.2, G 2.92, P 3.64, T 3.18
A5: F 2.63, K 2.97, I 3.5, M 2.48, Q 2.16, E 2.3, S 2.69, N 2.29, L 3.02, P 4.01, D 2.32
L2: V 2.69, W 2.87, P 4.52, R 4.1, T 4.64, K 4.6, G 4.37, C 3.53, Q 3.59, N 4.38, F 4.37, Y 3.84, A 4.37
K11: Y 2.44, M 2.62, R 2.89, T 3.02, W 2.11, P 2.87, G 3.5, H 2.98, L 2.72, E 3.01, Q 3.24, D 3.23, A 3.14
R8: L 1.77, Y 2.37, E 3.93, M 2.64, Q 3.11, A 2.61, N 3.1, C 2.8, F 2.37, D 4.13
F7: D 4.63, Y 3.29, K 4.71, E 5.23, C 4.29, I 3.94, G 4.42, S 4.25, Q 4.62, P 4.24, A 4.81
S15: W 1.93, P 3.19, Q 3.19, D 3.35, I 3.23, G 2.86, A 3.39, V 2.36, T 2.4, M 2.88, F 3.04
P4: E 4.33, N 3.78, W 2.33, Q 3.94, R 3.73, K 4.5, G 3.21, C 3.54, I 3.56
Y3: F 3.13, A 4.14, E 3.71, C 3.55, L 4.36, W 3.71, K 3.84, G 4.38, Q 3.85, R 4.26, S 3.64, N 2.43
S17: N 3.16, H 2.86, Q 3, E 3.18, C 2.9, L 2.9, K 3.01
P18: F 2.3, T 3.52, M 2.78, D 3.09, H 2.74, V 2.33, I 2.96, L 2.73, N 2.34, K 3.08, G 2.58, E 2.74, A 2.22, W 2.51, R 2.79
F9: R 3.71, H 2.91, P 2.35, N 2.63, Y 3.29, A 1.29, I 2.49, C 2.61, W 2.82, S 2.05, M 2.01
D10: W 2.92, L 3.01, V 2.62, M 2.99, K 2.8, Q 2.26, Y 2.87, E 3.08, C 2.15, R 2.71, T 2.69, S 3.22, F 2.83, I 1.87
